Reference: US20260027208A1 (published 2026)

T1: KRAS G12D peptide on HLA-A*11:01 (human)
T1 peptide: VVVGADGVGK


How the values were obtained:
[1] = target: T1, KRAS G12D peptide on HLA-A*11:01; test: CD137 by flow cytometry; transduced primary CD4+ and CD8+ T cells, TRAC/TRBC wild type; G12D peptide titrated (FIG. 3C); full-length, on cells
Experimental: (§1) Primary CD4+ and CD8+ T cells were transduced with a KRAS-G12D-specific T cell receptor (TCR69, TCR79, TCR80, TCR81, or TCR91), and were either edited to knockout TRAC and TRBC or left with unmodified TRAC and TRBC genes, and expanded for several days. Engineered T cells were incubated with G12D peptide at decreasing concentrations and T cell responses were assessed by measuring CD137 expression.
(§2) In additional experiments, the effect of TRAC and TRBC knockout was evaluated for primary CD4+ and CD8+ T cells transduced with further KRAS-G12D-specific TCRs. The double knockout improved TCR avidity for multiple TCRs as shown in FIG. 3C (corresponding EC50 values in TABLE 2 and Cmax values in TABLE 3), FIG. 3D (corresponding EC50 values in TABLE 4), and FIG. 3E (corresponding EC50 values in TABLE 5).

[2] = target: T1, KRAS G12D peptide on HLA-A*11:01; test: CD137 by flow cytometry; transduced primary CD4+ and CD8+ T cells, TRAC/TRBC wild type; G12D peptide titrated (FIG. 3D); full-length, on cells
Experimental: as §1, §2

[3] = target: T1, KRAS G12D peptide on HLA-A*11:01; test: CD137 by flow cytometry; transduced primary CD4+ and CD8+ T cells, TRAC/TRBC wild type; G12D peptide titrated (FIG. 3E); full-length, on cells
Experimental: as §1, §2

[4] = target: T1, KRAS G12D peptide on HLA-A*11:01; test: CD137 by flow cytometry; transduced primary CD4+ and CD8+ T cells, TRAC/TRBC double knockout; G12D peptide titrated (FIG. 3C); full-length, on cells
Experimental: as §1, §2

[5] = target: T1, KRAS G12D peptide on HLA-A*11:01; test: CD137 by flow cytometry; transduced primary CD4+ and CD8+ T cells, TRAC/TRBC double knockout; G12D peptide titrated (FIG. 3D); full-length, on cells
Experimental: as §1, §2

[6] = target: T1, KRAS G12D peptide on HLA-A*11:01; test: CD137 by flow cytometry; transduced primary CD4+ and CD8+ T cells, TRAC/TRBC double knockout; G12D peptide titrated (FIG. 3E); full-length, on cells
Experimental: as §1, §2

[7] = target: T1, KRAS G12D peptide on HLA-A*11:01; test: CD137 by flow cytometry; transduced primary CD4+ and CD8+ T cells without knockout of TRAC and TRBC; G12D peptide titrated (FIG. 3C); full-length, on cells
Experimental: as §1, §2

[8] = target: T1, KRAS G12D peptide on HLA-A*11:01; test: activation reporter or marker
[9] = target: T1, KRAS G12D peptide on HLA-A*11:01; test: killing
Experimental: Red fluorescent Hpaf-II cells, a KRAS-G12D expressing tumor cell line transduced to express HLA-A11, were cocultured at 3:1 effector:target cell ratio with TCR32-transduced CD8⁺ T cells having wild type TRAC and TRBC loci or TCR32-transduced TRAC/TRBC double knockout (dKO) CD8⁺ T cells. Total red object integrated intensity (a measure of tumor cell volume) was evaluated over time. Red fluorescence was measured by live cell imaging using a life cell analysis system, the IncuCyte S3 microscope and software package. CD8⁺ T cell cytotoxicity is indicated by a decrease in the total red target cell area per well as compared to no treatment wells. Additional tumor cells were added at 72 and 140 hours to assess TCR-mediated tumor cell lysis by transduced T cells in the presence of persistent antigen. Reductions in tumor cells were observed when co-cultured with TCR-transduced cells (FIG. 2).

EC50 of peptide [1] [nM] | EC50 of peptide [2] [nM] | EC50 of peptide [3] [nM] | EC50 of peptide [4] [nM] | EC50 of peptide [5] [nM] | EC50 of peptide [6] [nM] | Cmax [7] [%] | binding result [8] | Binder | binding result [9]
36.3 | 37.8 | 36.3 | 7.6 | 9.4 | 7.6 | 23.9 |  | TCR5 (TCR, V domains shown) Valpha: GEDVEQSLFLSVREGDSSVINCTYTDSSSTYLYWYKQEPGAGLQLLTYIFSNMDMKQDQRLTVLLNKKDKHLSLRIADTQTGDSAIYFCAERDAGNNRKLIWGLGTSLAVNP Vbeta: GAGVSQSPRYKVAKRGQDVALRCDPISGHVSLFWYQQALGQGPEFLTYFQNEAQLDKSGLPSDRFFAERPEGSVSTLKIQRTQQEDSAVYLCASSLEGGDTQYFGPGTRLTVL | 
 |  |  |  |  |  |  | recognises | TCR69 (TCR, V domains shown) Valpha: TQLLEQSPQFLSIQEGENLTVYCNSSSVFSSLQWYRQEPGEGPVLLVTVVTGGEVKKLKRLTFQFGDARKDSSLHITAAQPGDTGLYLCAGKTTDSWGKLQFGAGTQVVVTP Vbeta: EPEVTQTPSHQVTQMGQEVILRCVPISNHLYFYWYRQILGQKVEFLVSFYNNEISEKSEIFDDQFSVERPDGSNFTLKIRSTKLEDSAMYFCASSEWAGTEAFFGQGTRLTVV | 
 |  |  |  |  |  |  | recognises | TCR81 (TCR, V domains shown) Valpha: AQTVTQSQPEMSVQEAETVTLSCTYDTSESDYYLFWYKQPPSRQMILVIRQEAYKQQNATENRFSVNFQKAAKSFSLKISDSQLGDAAMYFCAYCNPNAGKSTFGDGTTLTVKP Vbeta: DVKVTQSSRYLVKRTGEKVFLECVQDMDHENMFWYRQDPGLGLRLIYFSYDVKMKEKGDIPEGYSVSREKKERFSLILESASTNQTSMYLCASSFRLREGLGEQFFGPGTRLTVL | 
131 | 179 | 131 | 36.5 | 14.4 | 36.5 | 14.4 |  | TCR91 (TCR, V domains shown) Valpha: AQKVTQAQTEISVVEKEDVTLDCVYETRDTTYYLFWYKQPPSGELVFLIRRNSFDEQNEISGRYSWNFQKSTSSFNFTITASQVVDSAVYFCALNEGGGSTLGRLYFGRGTQLTVWP Vbeta: DAMVIQNPRYQVTQFGKPVTLSCSQTLNHNVMYWYQQKSSQAPKLLFHYYDKDFNNEADTPDNFQSRRPNTSFCFLDIRSPGLGDAAMYLCATSTGRVYQPQHFGDGTRLSIL | 
49.8 | 31.1 | 49.8 | 11.8 | 4.4 | 11.8 | 16 |  | TCR4 (TCR, V domains shown) Valpha: QKEVEQDPGPLSVPEGAIVSLNCTYSNSAFQYFMWYRQYSRKGPELLMYTYSSGNKEDGRFTAQVDKSSKYISLFIRDSQPSDSATYLCAMGALNSGAGSYQLTFGKGTKLSVIP Vbeta: KAGVTQTPRYLIKTRGQQVTLSCSPISGHRSVSWYQQTPGQGLQFLFEYFSETQRNKGNFPGRFSGRQFSNSRSEMNVSTLELGDSALYLCASSLSSGTGTEAFFGQGTRLTVE | 
 |  |  |  |  |  |  | recognises | TCR79 (TCR, V domains shown) Valpha: QKEVEQNSGPLSVPEGAIASLNCTYSDRVSQSFFWYRQYSGKSPELIMSIYSNGDKEDGRFTAQLNKASQYVSLLIRDSQPSDSATYLCAVRWAGGTSYGKLTFGQGTILTVHP Vbeta: DTGVSQDPRHKITKRGQNVTFRCDPISEHNRLYWYRQTLGQGPEFLTYFQNEAQLEKSRLLSDRFSAERPKGSFSTLEIQRTEQGDSAMYLCATPLGRTNEQFFGPGTRLTVL | 
 |  |  |  |  |  |  |  | TCR32 (TCR, V domains shown) Valpha: AQTVTQSQPEMSVQEAETVTLSCTYDTSENNYYLFWYKQPPSRQMILVIRQEAYKQQNATENRFSVNFQKAAKSFSLKISDSQLGDTAMYFCAFMTPITQGGSEKLVFGKGTKLTVNP Vbeta: ETGVTQSPTHLIKTRGQQVTLRCSSQSGHNTVSWYQQALGQGPQFIFQYYREEENGRGNFPPRFSGLQFPNYSSELNVNALELDDSALYLCASSDRGWNEQFFGPGTRLTVL | recognises
31.6 | 22.2 | 31.6 | 10.1 | 7.3 | 10.1 | 42.7 |  | TCR2 (TCR, V domains shown) Valpha: AQTVTQSQPEMSVQEAETVTLSCTYDTSENNYYLFWYKQPPSRQMILVIRQEAYKQQNATENRFSVNFQKAAKSFSLKISDSQLGDTAMYFCAFMYPSQGGSEKLVFGKGMKLTVNP Vbeta: ETGVTQSPTHLIKTRGQQVTLRCSSQSGHNTVSWYQQALGQGPQFIFQYYREEENGRGNFPPRFSGLQFPNYSSELNVNALELDDSALYLCASSSPGFRSYGYTFGSGTRLTVV | 
 |  |  |  |  |  |  | recognises | TCR80 (TCR, V domains shown) Valpha: AQTVTQSQPEMSVQEAETVTLSCTYDTSESDYYLFWYKQPPSRQMILVIRQEAYKQQNATENRFSVNFQKAAKSFSLKISDSQLGDAAMYFCASTLSSGDKLTFGTGTRLAVRP Vbeta: EPEVTQTPSHQVTQMGQEVILRCVPISNHLYFYWYRQILGQKVEFLVSFYNNEISEKSEIFDDQFSVERPDGSNFTLKIRSTKLEDSAMYFCASSGVDRAYGYTFGSGTRLTVV | 
